What was measured:
Test in all cases: Kinetic parameters for hydrolysis of internally quenched fluorogenic peptides by secPHEX
Assay type in all cases: biochemical, human
Conditions in all cases: other: 37° C., 10 mM Bis-Tris buffer pH 5.5, 150 mM NaCl
[1] = substrate: NC(=O)CC[C@H](NC(=O)[C@H](Cc1ccc(O)cc1)NC(=O)[C@H](CC(=O)O)NC(=O)[C@H](CO)NC(=O)[C@H](Cc1ccccc1)NC(=O)CNC(=O)c1ccccc1N)C(=O)NCCNc1ccc([N+](=O)[O-])cc1[N+](=O)[O-]
Description: (§1) The human recombinant secPHEX was obtained following the procedure previously described (17, WO 00/50580). Purified secPHEX concentration was determined using the Bradford method (DC protein assay kit; Bio-Rad, Mississauga, ON, Canada). Membrane-bound recombinant human PHEX was expressed in LLC-PK1 cells (17, (WO 00/50580)) and membranes were prepared essentially as described by Guo et al. (34). Briefly, transfected cells resuspended in lysis buffer (150 mM NaCl, 20 mM Tris.HCl, pH 7.6) were disrupted by sonication. Cell debris were removed by centrifugation at 300 g for 15 min at 4 °C. Membranes were collected by centrifugation at 30,000 g for 50 min and solubilized for 2h with 1% n-dodecyl-β-D-maltoside in lysis buffer. Insoluble material was pelleted by centrifugation at 10,000 g for 15 min and protein concentrations of the supernatant determined using the Bradford method described above. PHEX amounts were evaluated by immunoblotting as described previously (17). NEP expression and purification were performed as described previously (36).
(§2) The hydrolysis of the IQFPs, at 37° C., in 10 mM Bit-Tris buffer pH 5.5 (0.35 to 1.0 ml final volume) containing 150 mM NaCl, was continuously followed measuring the fluorescence at γem=420 nm and γex=320 nm in a Hitachi F-2000™ spectrofluorometer. The cuvefte containing the buffer and the substrate was placed in a thermostatically controlled cell compartment for 5 min before the addition of the enzyme and the increase in fluorescence with time was continuously recorded for 5-10 min. The enzyme concentration for initial rate determination was chosen at a level intended to hydrolyze less than 5% of the substrate present. The slope was converted into micromoles of substrate hydrolyzed per min based on a calibration curve obtained from complete hydrolysis of each peptide. The inner-filter effect was corrected using an empirical equation as previously described (43). The kinetic parameters Km and kcat were calculated by the non-linear regression data analysis Grafit program (42). The kcat/Km values were calculated as the ratio of these two determined parameters. The apparent second order rate constant kcat/Km (*kIt/Km) was determined under pseudo first-order conditions, where [S]<<Km. These determinations were performed in two different substrate concentrations and the errors were less than 5% for any obtained value.
(§3) To determine the position of cleavage in peptides of the IQFPs combinatorial libraries, the products resulting from hydrolysis by secPHEX were submitted to N-terminal amino acid sequencing in a PPSQ-23protein sequencer (Shimadzu Tokyo, Japan). The scissile bonds in the IQFPs secPHEX substrates derived from PTHrP107-139, FGF-23and MEPE were determined by amino acid sequencing and by MALDI-TOF™ mass spectrometry (TofSpec-E™, Micromass, Manchester, U.K.) after isolation of the fragments resulting from the hydrolysis by secPHEX by analytical HPLC.
(§4) The assays were performed at 37° C., in 10 mM Bis-Tris buffer pH 5.5, containing 150 mM NaCl. Measurements were made as described under the heading “Experimental Procedures” above. Cleavage sites are indicated as arrows (↓). The standard deviations of the kinetic constants were less than 5%.
(§5) The assays were performed at 37° C., in 10 mM Bis-Tris buffer pH 5.5, containing 150 mM NaCl. Measurements were made as described under the heading “Experimental Procedures” above. Cleavage sites are indicated by arrows (↓). The standard deviations of the kinetic constants were less than 5%.
(§6) The assays were. performed at 37° C., in 10 mM Bis-Tris buffer pH 5.5, containing 150 mM NaCl. Measurements were made as described under the heading “Experimental Procedures” above. Cleavage sites are indicated by arrows (↓). The standard deviations of the kinetic constants were less than 5%.
(§7) The assays were performed at 37° C., in 10 mM Bis-Tris buffer pH 5.5, containing 150 mM NaCl. Measurements were made as described under “Experimental Procedures”. […]

[2] = substrate: C[C@H](NC(=O)[C@H](CO)NC(=O)[C@H](CCCNC(=N)N)NC(=O)[C@@H](NC(=O)[C@H](Cc1c[nH]cn1)NC(=O)[C@H](CCCNC(=N)N)NC(=O)[C@H](CCCNC(=N)N)NC(=O)c1ccccc1N)[C@@H](C)O)C(=O)N[C@@H](CCC(=O)O)C(=O)N[C@@H](CC(=O)O)C(=O)N[C@@H](CC(=O)O)C(=O)N[C@@H](CO)C(=O)N[C@@H](CCC(=O)O)C(=O)N[C@@H](CCCNC(=N)N)C(=O)N[C@@H](CCC(N)=O)C(=O)NCCNc1ccc([N+](=O)[O-])cc1[N+](=O)[O-]
Description: as §1, §2, §3, §4, §5, §6, §7

[3] = substrate: CC(C)C[C@H](NC(=O)c1ccccc1N)C(=O)N[C@@H](CCC(=O)O)C(=O)N[C@@H](CC(C)C)C(=O)N[C@@H](CC(=O)O)C(=O)N[C@@H](CO)C(=O)N[C@@H](CCCNC(=N)N)C(=O)N[C@@H](CCC(N)=O)C(=O)NCCNc1ccc([N+](=O)[O-])cc1[N+](=O)[O-]
Description: as §1, §2, §3, §4, §5, §6, §7

[4] = substrate: C[C@H](NC(=O)[C@H](CCC(N)=O)NC(=O)[C@H](CO)NC(=O)[C@H](CC(=O)O)NC(=O)[C@H](CCCNC(=N)N)NC(=O)[C@H](CCC(N)=O)NC(=O)[C@@H]1CCCN1C(=O)CNC(=O)c1ccccc1N)C(=O)N[C@@H](CCC(N)=O)C(=O)NCCNc1ccc([N+](=O)[O-])cc1[N+](=O)[O-]
Description: as §1, §2, §3, §4, §5, §6, §7

B1: human recombinant secPHEX (Homo sapiens) (protein)
chain: SLQAKQEYCLKPECIEAAAAILSKVNLSVDPCDNFFRFACDGWISNNPIPEDMPSYGVYPWLRHNVDLKLKELLEKSISRRRDTEAIQKAKILYSSCMNEKAIEKADAKPLLHILRHSPFRWPVLESNIGPEGVWSERKFSLLQTLATFRGQYSNSVFIRLYVSPDDKASNEHILKLDQATLSLAVREDYLDNSTEAKSYRDALYKFMVDTAVLLGANSSRAEHDMKSVLRLEIKIAEIMIPHENRTSEAMYNKMNISELSAMIPQFDWLGYIKKVIDTRLYPHLKDISPSENVVVRVPQYFKDLFRILGSERKKTIANYLVWRMVYSRIPNLSRRFQYRWLEFSRVIQGTTTLLPQWDKCVNFIESALPYVVGKMFVDVYFQEDKKEMMEELVEGVRWAFIDMLEKENEWMDAGTKRKAKEKARAVLAKVGYPEFIMNDTHVNEDLKAIKFSEADYFGNVLQTRKYLAQSDFFWLRKAVPKTEWFTNPTTVNAFYSASTNQIRFPAGELQKPFFWGTEYPRSLSYGAIGVIVGHEFTHGFDNNGRKYDKNGNLDPWWSTESEEKFKEKTKCMINQYSNYYWKKAGLNVKGKRTLGENIADNGGLREAFRAYRKWINDRRQGLEEPLLPGITFTNNQLFFLSYAHVRCNSYRPEAAREQVQIGAHSPPQFRVNGAISNFEEFQKAFNCPPNSTMNRGMDSCRLW
notes: pure soluble form of PHEX (secPHEX); made in house
Km [1]: 13.3 µM
kcat [1]: 0.6 s⁻¹
kcat/Km [1]: 45100 M⁻¹ s⁻¹
Km [2]: 3.0 µM
kcat [2]: 0.2 s⁻¹
kcat/Km [2]: 66700 M⁻¹ s⁻¹
Km [3]: 0.9 µM
kcat [3]: 0.05 s⁻¹
kcat/Km [3]: 55500 M⁻¹ s⁻¹
Km [4]: 47.0 µM
kcat [4]: 0.2 s⁻¹
kcat/Km [4]: 4300 M⁻¹ s⁻¹

Reference: patent publication US20060292657A1, “Phex substrates and methods using same” (priority 2003, published 2006)
